From publication PMC11574045, “A cofactor-induced repressive type of transcription factor condensation can be induced by synthetic peptides to suppress tumorigenesis” (The EMBO Journal, 2024)

Tested on: HEK293FT cells transfected with TF library
Experiment: Screening of TF condensates based on fluorescent puncta
Type: cell-based
Conditions: Figure 1B numerical data; TF library screen, one value per transcriptional factor
Outline: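 HEK293FT cells were reverse-transfected with Flag- or GAL4-tagged TF plasmids (1.6 μg/ml, PEI). After 60 h, cells were cultured 12 h with or without glucose, then fixed and immunostained with anti-Flag or anti-GAL4 and Alexa 488 secondaries. Fluorescent puncta were imaged over fifty random fields per well by high-content imaging.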

B1: MAEL (protein, UniProt Q96JY0 1-434, looked up)
Protein maelstrom homolog: MPNRKASRNAYYFFVQEKIPELRRRGLPVARVADAIPYCSSDWALLREEEKEKYAEMAREWRAAQGKDPGPSEKQKPVFTPLRRPGMLVPKQNVSPPDMSALSLKGDQALLGGIFYFLNIFSHGELPPHCEQRFLPCEIGCVKYSLQEGIMADFHSFINPGEIPRGFRFHCQAASDSSHKIPISNFERGHNQATVLQNLYRFIHPNPGNWPPIYCKSDDRTRVNWCLKHMAKASEIRQDLQLLTVEDLVVGIYQQKFLKEPSKTWIRSLLDVAMWDYSSNTRCKWHEENDILFCALAVCKKIAYCISNSLATLFGIQLTEAHVPLQDYEASNSVTPKMVVLDAGRYQKLRVGSSGFSHFNSSNEEQRSNTPIGDYPSRAKISGQNSSVRGRGITRLLESISNSSSNIHKFSNCDTSLSPYMSQKDGYKSFSSLS
Z score of condensed fraction: -0.816

B2: MAD (protein, UniProt Q05195 1-221, looked up)
Max dimerization protein 1: MAAAVRMNIQMLLEAADYLERREREAEHGYASMLPYNNKDRDALKRRNKSKKNNSSSRSTHNEMEKNRRAHLRLCLEKLKGLVPLGPESSRHTTLSLLTKAKLHIKKLEDCDRKAVHQIDQLQREQRHLKRQLEKLGIERIRMDSIGSTVSSERSDSDREEIDVDVESTDYLTGDLDWSSSSVSDSDERGSMQSLGSDEGYSSTSIKRIKLQDSHKACLGL
Z score of condensed fraction: 0.4682

B3: MEIS3 (protein, UniProt Q99687 1-375, looked up)
Homeobox protein Meis3: MARRYDELPHYPGIVDGPAALASFPETVPAVPGPYGPHRPPQPLPPGLDSDGLKREKDEIYGHPLFPLLALVFEKCELATCSPRDGAGAGLGTPPGGDVCSSDSFNEDIAAFAKQVRSERPLFSSNPELDNLMIQAIQVLRFHLLELEKVHDLCDNFCHRYITCLKGKMPIDLVIEDRDGGCREDFEDYPASCPSLPDQNNMWIRDHEDSGSVHLGTPGPSSGGLASQSGDNSSDQGDGLDTSVASPSSGGEDEDLDQERRRNKKRGIFPKVATNIMRAWLFQHLSHPYPSEEQKKQLAQDTGLTILQVNNWFINARRRIVQPMIDQSNRTGQGAAFSPEGQPIGGYTETQPHVAVRPPGSVGMSLNLEGEWHYL
Z score of condensed fraction: 1.7837

B4: MEF2A (protein, UniProt Q02078 1-507, looked up)
Myocyte-specific enhancer …: MGRKKIQITRIMDERNRQVTFTKRKFGLMKKAYELSVLCDCEIALIIFNSSNKLFQYASTDMDKVLLKYTEYNEPHESRTNSDIVEALNKKEHRGCDSPDPDTSYVLTPHTEEKYKKINEEFDNMMRNHKIAPGLPPQNFSMSVTVPVTSPNALSYTNPGSSLVSPSLAASSTLTDSSMLSPPQTTLHRNVSPGAPQRPPSTGNAGGMLSTTDLTVPNGAGSSPVGNGFVNSRASPNLIGATGANSLGKVMPTKSPPPPGGGNLGMNSRKPDLRVVIPPSSKGMMPPLSEEEELELNTQRISSSQATQPLATPVVSVTTPSLPPQGLVYSAMPTAYNTDYSLTSADLSALQGFNSPGMLSLGQVSAWQQHHLGQAALSSLVAGGQLSQGSNLSINTNQNISIKSEPISPPRDRMTPSGFQQQQQQQQQQQPPPPPQPQPQPPQPQPRQEMGRSPVDSLSSSSSSYDGSDREDPRGDFHSPIVLGRPPNTEDRESPSVKRMRMDAWVT
Z score of condensed fraction: -0.6589

B5: MBLR (protein, UniProt Q9BYE7 1-350, looked up)
Polycomb group RING finger …: MEGVAVVTAGSVGAAKTEGAAALPPPPPVSPPALTPAPAAGEEGPAPLSETGAPGCSGSRPPELEPERSLGRFRGRFEDEDEELEEEEELEEEEEEEEEDMSHFSLRLEGGRQDSEDEEERLINLSELTPYILCSICKGYLIDATTITECLHTFCKSCIVRHFYYSNRCPKCNIVVHQTQPLYNIRLDRQLQDIVYKLVINLEEREKKQMHDFYKERGLEVPKPAVPQPVPSSKGRSKKVLESVFRIPPELDMSLLLEFIGANEGTGHFKPLEKKFVRVSGEATIGHVEKFLRRKMGLDPACQVDIICGDHLLEQYQTLREIRRAIGDAAMQDGLLVLHYGLVVSPLKIT
Z score of condensed fraction: 0.4702

B6: MADH1 (protein, UniProt Q15797 1-465, looked up)
Mothers against …: MNVTSLFSFTSPAVKRLLGWKQGDEEEKWAEKAVDALVKKLKKKKGAMEELEKALSCPGQPSNCVTIPRSLDGRLQVSHRKGLPHVIYCRVWRWPDLQSHHELKPLECCEFPFGSKQKEVCINPYHYKRVESPVLPPVLVPRHSEYNPQHSLLAQFRNLGQNEPHMPLNATFPDSFQQPNSHPFPHSPNSSYPNSPGSSSSTYPHSPTSSDPGSPFQMPADTPPPAYLPPEDPMTQDGSQPMDTNMMAPPLPSEINRGDVQAVAYEEPKHWCSIVYYELNNRVGEAFHASSTSVLVDGFTDPSNNKNRFCLGLLSNVNRNSTIENTRRHIGKGVHLYYVGGEVYAECLSDSSIFVQSRNCNYHHGFHPTTVCKIPSGCSLKIFNNQEFAQLLAQSVNHGFETVYELTKMCTIRMSFVKGWGAEYHRQDVTSTPCWIEIHLHGPLQWLDKVLTQMGSPHNPISSVS
Z score of condensed fraction: -0.2284

B7: MDFI (protein, UniProt Q99750 1-246, looked up)
MyoD family inhibitor: MYQVSGQRPSGCDAPYGAPSAAPGPAQTLSLLPGLEVVTGSTHPAEAAPEEGSLEEAATPMPQGNGPGIPQGLDSTDLDVPTEAVTCQPQGNPLGCTPLLPNDSGHPSELGGTRRAGNGALGGPKAHRKLQTHPSLASQGSKKSKSSSKSTTSQIPLQAQEDCCVHCILSCLFCEFLTLCNIVLDCATCGSCSSEDSCLCCCCCGSGECADCDLPCDLDCGILDACCESADCLEICMECCGLCFSS
Z score of condensed fraction: 0.558

B8: ASCL2 (protein, UniProt Q99929 1-193, looked up)
Achaete-scute homolog 2: MDGGTLPRSAPPAPPVPVGCAARRRPASPELLRCSRRRRPATAETGGGAAAVARRNERERNRVKLVNLGFQALRQHVPHGGASKKLSKVETLRSAVEYIRALQRLLAEHDAVRNALAGGLRPQAVRPSAPRGPPGTTPVAASPSRASSSPGRGGSSEPGSPRSAYSSDDSGCEGALSPAERELLDFSSWLGGY
Z score of condensed fraction: 0.864

B9: MADH4 (protein, UniProt Q13485 1-552, looked up)
Mothers against …: MDNMSITNTPTSNDACLSIVHSLMCHRQGGESETFAKRAIESLVKKLKEKKDELDSLITAITTNGAHPSKCVTIQRTLDGRLQVAGRKGFPHVIYARLWRWPDLHKNELKHVKYCQYAFDLKCDSVCVNPYHYERVVSPGIDLSGLTLQSNAPSSMMVKDEYVHDFEGQPSLSTEGHSIQTIQHPPSNRASTETYSTPALLAPSESNATSTANFPNIPVASTSQPASILGGSHSEGLLQIASGPQPGQQQNGFTGQPATYHHNSTTTWTGSRTAPYTPNLPHHQNGHLQHHPPMPPHPGHYWPVHNELAFQPPISNHPAPEYWCSIAYFEMDVQVGETFKVPSSCPIVTVDGYVDPSGGDRFCLGQLSNVHRTEAIERARLHIGKGVQLECKGEGDVWVRCLSDHAVFVQSYYLDREAGRAPGDAVHKIYPSAYIKVFDLRQCHRQMQQQAATAQAAAAAQAAAVAGNIPGPGSVGGIAPAISLSAAAGIGVDDLRRLCILRMSFVKGWGPDYPRQSIKETPCWIEIHLHRALQLLDEVLHTMPIADPQPLD
Z score of condensed fraction: -0.6861

B10: ASCL3 (protein, UniProt Q9NQ33 1-181, looked up)
Achaete-scute homolog 3: MMDNRGNSSLPDKLPIFPDSARLPLTRSFYLEPMVTFHVHPEAPVSSPYSEELPRLPFPSDSLILGNYSEPCPFSFPMPYPNYRGCEYSYGPAFTRKRNERERQRVKCVNEGYAQLRHHLPEEYLEKRLSKVETLRAAIKYINYLQSLLYPDKAETKNNPGKVSSMIATTSHHADPMFRIV
Z score of condensed fraction: 0.02457

B11: MAGED1 (protein, UniProt Q9Y5V3 1-778, looked up)
Melanoma-associated antigen D1: MAQKMDCGAGLLGFQAEASVEDSALLMQTLMEAIQISEAPPTNQATAAASPQSSQPPTANEMADIQVSAAAARPKSAFKVQNATTKGPNGVYDFSQAHNAKDVPNTQPKAAFKSQNATPKGPNAAYDFSQAATTGELAANKSEMAFKAQNATTKVGPNATYNFSQSLNANDLANSRPKTPFKAWNDTTKAPTADTQTQNVNQAKMATSQADIETDPGISEPDGATAQTSADGSQAQNLESRTIIRGKRTRKINNLNVEENSSGDQRRAPLAAGTWRSAPVPVTTQNPPGAPPNVLWQTPLAWQNPSGWQNQTARQTPPARQSPPARQTPPAWQNPVAWQNPVIWPNPVIWQNPVIWPNPIVWPGPVVWPNPLAWQNPPGWQTPPGWQTPPGWQGPPDWQGPPDWPLPPDWPLPPDWPLPTDWPLPPDWIPADWPIPPDWQNLRPSPNLRPSPNSRASQNPGAAQPRDVALLQERANKLVKYLMLKDYTKVPIKRSEMLRDIIREYTDVYPEIIERACFVLEKKFGIQLKEIDKEEHLYILISTPESLAGILGTTKDTPKLGLLLVILGVIFMNGNRASEAVLWEALRKMGLRPGVRHPLLGDLRKLLTYEFVKQKYLDYRRVPNSNPPEYEFLWGLRSYHETSKMKVLRFIAEVQKRDPRDWTAQFMEAADEALDALDAAAAEAEARAEARTRMGIGDEAVSGPWSWDDIEFELLTWDEEGDFGDPWSRIPFTFWARYHQNARSRFPQTFAGPIIGPGGTASANFAANFGAIGFFWVE
Z score of condensed fraction: -0.7984

B12: MAD3 (protein, UniProt Q9BW11 1-206, looked up)
Max dimerization protein 3: MEPLASNIQVLLQAAEFLERREREAEHGYASLCPHRSPGPIHRRKKRPPQAPGAQDSGRSVHNELEKRRRAQLKRCLERLKQQMPLGADCARYTTLSLLRRARMHIQKLEDQEQRARQLKERLRSKQQSLQRQLEQLRGLAGAAERERLRADSLDSSGLSSERSDSDQEELEVDVESLVFGGEAELLRGFVAGQEHSYSHGGGAWL
Z score of condensed fraction: -1.116

B13: MDM4 (protein, UniProt O15151 1-490, looked up)
Protein Mdm4: MTSFSTSAQCSTSDSACRISPGQINQVRPKLPLLKILHAAGAQGEMFTVKEVMHYLGQYIMVKQLYDQQEQHMVYCGGDLLGELLGRQSFSVKDPSPLYDMLRKNLVTLATATTDAAQTLALAQDHSMDIPSQDQLKQSAEESSTSRKRTTEDDIPTLPTSEHKCIHSREDEDLIENLAQDETSRLDLGFEEWDVAGLPWWFLGNLRSNYTPRSNGSTDLQTNQDVGTAIVSDTTDDLWFLNESVSEQLGVGIKVEAADTEQTSEEVGKVSDKKVIEVGKNDDLEDSKSLSDDTDVEVTSEDEWQCTECKKFNSPSKRYCFRCWALRKDWYSDCSKLTHSLSTSDITAIPEKENEGNDVPDCRRTISAPVVRPKDAYIKKENSKLFDPCNSVEFLDLAHSSESQETISSMGEQLDNLSEQRTDTENMEDCQNLLKPCSLCEKRPRDGNIIHGRTGHLVTCFHCARRLKKAGASCPICKKEIQLVIKVFIA
Z score of condensed fraction: 2.3

B14: ASCL4 (protein, UniProt Q6XD76 1-172, looked up)
Achaete-scute homolog 4: METRKPAERLALPYSLRTAPLGVPGTLPGLPRRDPLRVALRLDAACWEWARSGCARGWQYLPVPLDSAFEPAFLRKRNERERQRVRCVNEGYARLRDHLPRELADKRLSKVETLRAAIDYIKHLQELLERQAWGLEGAAGAVPQRRAECNSDGESKASSAPSPSSEPEEGGS
Z score of condensed fraction: 1.17
